Measured values: IntAct's records for PubMed 31025394

B1: Myosin-binding protein C, slow-type (Homo sapiens), Q00872-4 (parent)
chain: MPEPTKKEENEVPAPAPPPEEPSKEKEAGTTPAKDEEEVSPPSALPPGLGSRALERKDSDWTLVETPPGEEQAKQNANSQLSILFIEKPQGGTVKVGEDITFIAKVKAEDLLRKPTIKWFKGKWMDLASKAGKHLQLKETFERHSRVYTFEMQIIKAKDNFAGNYRCEVTYKDKFDSCSFDLEVHESTGTTPNIDIRSAFKRSGEGQEDAGELDFSGLLKRREVKQQEEEPQVDVWELLKNAKPSEYEKIAFQYGITDLRGMLKRLKRMRREEKKSAAFAKILDPAYQVDKGGRVRFVVELADPKLEVKWYKNGQEIRPSTKYIFEHKGCQRILFINNCQMTDDSEYYVTAGDEKCSTELFVREPPIMVTKQLEDTTAYCGERVELECEVSEDDANVKWFKNGEEIIPGPKSRYRIRVEGKKHILIIEGATKADAAEYSVMTTGGQSSAKLSVDLKPLKILTPLTDQTVNLGKEICLKCEISENIPGKWTKNGLPVQESDRLKVVHKGRIHKLVIANALTEDEGDYVFAPDAYNVTLPAKVHVIDPPKIILDGLDADNTVTVIAGNKLRLEIPISGEPPPKAMWSRGDKAIMEGSGRIRTESYPDSSTLVIDIAERDDSGVYHINLKNEAGEAHASIKVKVVDFPDPPVAPTVTEVGDDWCIMNWEPPAYDGGSPILGYFIERKKKQSSRWMRLNFDLCKETTFEPKKMIEGVAYEVRIFAVNAIGISKPSMPSRPFVPLAVTSPPTLLTVDSVTDTTVTMRWRPPDHIGAAGLDGYVLEYCFEGTEDWIVANKDLIDKTKFTITGLPTDAKIFVRVKAVNAAGASEPKYYSQPILVKEIIEPPKIRIPRHLKQTYIRRVGEAVNLVIPFQGKPRPELTWKKDGAEIDKNQINIRNSETDTIIFIRKAERSHSGKYDLQVKVDKFVETASIDIQIIDRPGPPQIVKIEDVWGENVALTWTPPKDDGNAAITGYTIQKADKKSMEWFTVIEHYHRTSATITELVIGNEYYFRVFSENMCGLSEDATMTKESAVIARDGKIYKNPVYEDFDFSEAPMFTQPLVNTYAIAGYNATLNCSVRGNPKPKITWMKNKVAIVDDPRYRMFSNQGVCTLEIRKPSPYDGGTYCCKAVNDLGTVEIECKLEVKVIYQGVNTPGQPVFLEGQQQSLHNKDF

Assays:
acts_rabit ACTA1, P68135 = variants of: B1; settings: with acts_rabit ACTA1, P68135
[1] = variants of: B1; settings: with myh11_rabit MYH11, P35748
myh11_rabit MYH11, P35748, sequence (P35748 whole entry): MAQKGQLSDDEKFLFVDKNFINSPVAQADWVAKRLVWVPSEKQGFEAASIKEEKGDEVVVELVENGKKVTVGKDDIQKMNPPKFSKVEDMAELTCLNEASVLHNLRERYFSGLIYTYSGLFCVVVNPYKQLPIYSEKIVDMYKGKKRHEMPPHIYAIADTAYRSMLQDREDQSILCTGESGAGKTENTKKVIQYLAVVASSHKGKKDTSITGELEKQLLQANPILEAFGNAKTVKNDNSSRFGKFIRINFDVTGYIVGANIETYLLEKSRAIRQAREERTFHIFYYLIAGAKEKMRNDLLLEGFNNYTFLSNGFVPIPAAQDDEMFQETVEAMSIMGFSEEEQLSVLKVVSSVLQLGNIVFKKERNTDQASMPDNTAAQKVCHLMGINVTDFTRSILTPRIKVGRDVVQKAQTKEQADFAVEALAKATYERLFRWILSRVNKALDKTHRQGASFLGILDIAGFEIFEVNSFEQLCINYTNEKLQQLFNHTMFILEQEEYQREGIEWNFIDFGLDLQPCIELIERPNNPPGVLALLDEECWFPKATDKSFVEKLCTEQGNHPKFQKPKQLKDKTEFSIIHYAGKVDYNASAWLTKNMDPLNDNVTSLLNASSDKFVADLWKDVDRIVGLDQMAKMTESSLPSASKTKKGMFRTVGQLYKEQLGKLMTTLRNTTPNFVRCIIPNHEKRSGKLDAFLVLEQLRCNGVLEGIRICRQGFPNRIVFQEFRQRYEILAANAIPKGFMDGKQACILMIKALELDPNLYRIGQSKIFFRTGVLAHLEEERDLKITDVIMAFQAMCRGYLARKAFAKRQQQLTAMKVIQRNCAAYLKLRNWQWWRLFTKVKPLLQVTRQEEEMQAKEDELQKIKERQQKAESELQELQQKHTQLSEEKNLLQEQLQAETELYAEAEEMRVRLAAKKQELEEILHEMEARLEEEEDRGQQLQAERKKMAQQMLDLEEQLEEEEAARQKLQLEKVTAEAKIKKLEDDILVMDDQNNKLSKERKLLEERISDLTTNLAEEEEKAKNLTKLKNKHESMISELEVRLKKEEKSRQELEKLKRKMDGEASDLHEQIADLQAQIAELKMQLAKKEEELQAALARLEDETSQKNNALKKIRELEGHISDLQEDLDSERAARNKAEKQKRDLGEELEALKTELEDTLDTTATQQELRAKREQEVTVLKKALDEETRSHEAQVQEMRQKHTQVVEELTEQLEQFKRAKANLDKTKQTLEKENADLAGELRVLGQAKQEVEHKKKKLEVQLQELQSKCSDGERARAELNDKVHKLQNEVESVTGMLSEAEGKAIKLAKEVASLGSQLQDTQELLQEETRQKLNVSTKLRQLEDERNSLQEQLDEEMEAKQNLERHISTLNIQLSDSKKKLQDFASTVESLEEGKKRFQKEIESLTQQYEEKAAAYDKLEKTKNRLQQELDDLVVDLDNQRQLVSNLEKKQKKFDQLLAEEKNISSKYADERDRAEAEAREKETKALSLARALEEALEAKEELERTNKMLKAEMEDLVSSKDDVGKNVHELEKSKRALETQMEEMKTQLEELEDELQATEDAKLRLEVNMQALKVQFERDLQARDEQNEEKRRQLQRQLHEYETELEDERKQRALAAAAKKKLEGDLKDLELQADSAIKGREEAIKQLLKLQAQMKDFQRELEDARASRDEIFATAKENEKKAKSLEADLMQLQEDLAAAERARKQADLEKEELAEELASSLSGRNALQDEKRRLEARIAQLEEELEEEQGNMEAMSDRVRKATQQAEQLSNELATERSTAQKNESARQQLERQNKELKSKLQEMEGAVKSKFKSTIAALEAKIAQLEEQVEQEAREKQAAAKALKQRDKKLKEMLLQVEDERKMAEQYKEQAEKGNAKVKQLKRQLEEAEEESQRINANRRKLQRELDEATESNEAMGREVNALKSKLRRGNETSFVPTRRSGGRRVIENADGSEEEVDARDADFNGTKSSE

## Y247H
acts_rabit ACTA1, P68135
  effect of a mutation on the interaction: increasing interaction strength
[1]
  effect of a mutation on the interaction: increasing interaction strength

## E248K
acts_rabit ACTA1, P68135
  effect of a mutation on the interaction: increasing interaction strength
[1]
  effect of a mutation on the interaction: increasing interaction strength
